Experimental data: article PMC3164629

What was measured:
SPR = substrate: CON-S gp140CFI Env, natively deglycosylated with PNGase F 500 U per µg (HIV-1 group M consensus); assay: SPR
[1] = target: group M consensus gp140 Env, CON-S gp140CFI, WT glycosylated (HIV-1 group M consensus); assay: SPR

| Binder | Kd (SPR) | Kd [1] |
| --- | --- | --- |
| 2F5 reverted unmutated ancestor antibody RUA1 (antibody, V domains shown) VH: QITLKESGPTLVKPTQTLTLTCTFSGFSLSTSGVGVGWIRQPPGKALEWLALIYWNDDKRYSPSLKSRLTITKDTSKNQVVLTMTNMDPVDTATYYCAHRRGPTTLFGVVIARGPVNGMDVWGQGTTVTVSS VL: AIQLTQSPSSLSASVGDRVTITCRASQGISSALAWYQQKPGKAPKLLIYDASSLESGVPSRFSGSGSGTDFTLTISSLQPEDFATYYCQQFNNYPHTFGGGTKVEIK | 67 nM | 118 nM |
| 2F5 reverted unmutated ancestor antibody RUA2 (antibody, V domains shown) VH: QITLKESGPTLVKPTQTLTLTCTFSGFSLSTSGVGVGWIRQPPGKALEWLALIYWDDDKRYGPSLKSRLTITKDTSKNQVVLTMTNMDPVDTATYYCAHRRGPTTLFGVVIARGPVNGMDVWGQGTTVTVSS VL: AIQLTQSPSSLSASVGDRVTITCRASQGISSALAWYQQKPGKAPKLLIYDASSLESGVPSRFSGSGSGTDFTLTISSLQPEDFATYYCQQFNNYPHTFGGGTKVEIK | 360 nM | 4000 nM |
